Data as given in patent US8445431.

Test system: T1, [KGHK-Cu]+ copper(II) complex of KGHK
T1 sequence: KGHK

Substance: recombinant isoform of human Angiotensin Converting Enzyme (rhACE) corresponding to the ectodomain somatic ACE
- catalytic rate constant kobs for enzyme deactivation under oxidative conditions (ascorbate, dioxygen): kobs˜2.86×10^-2 min^-1 for enzyme deactivation
